This experiment deals with IL-23-p40 (human) (UniProt P29460). In words: Binding ELISA: IL-23-p40 coated at 2 ug/ml, antibody dilution series 0 to 5 ug/ml, goat anti-human IgG secondary antibody, OD450 (reference 650 nm). The sheet prints no unit on the x axis; ng/ml follows from the range in paragraph 77 (highest point at 5000).

The term EC50 denotes the concentration that produces a half-maximal response.

Chain of IL-23-p40 (human) (P29460 23-328 limits assumed): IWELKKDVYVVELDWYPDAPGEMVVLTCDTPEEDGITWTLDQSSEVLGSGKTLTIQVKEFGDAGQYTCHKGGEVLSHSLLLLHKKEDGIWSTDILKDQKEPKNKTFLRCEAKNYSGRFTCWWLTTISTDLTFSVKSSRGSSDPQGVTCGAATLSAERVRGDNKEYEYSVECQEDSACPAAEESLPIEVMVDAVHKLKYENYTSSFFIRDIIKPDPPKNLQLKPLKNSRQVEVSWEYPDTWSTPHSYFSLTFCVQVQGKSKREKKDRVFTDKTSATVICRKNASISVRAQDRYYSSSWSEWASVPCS

Substance IL-23 p40 specific antibody QX001S showed a concentration giving a half-maximal response (EC50) of 0.0179 µg/mL.

The values are drawn from patent US12692303.
